# Fewer inactive variants are shown than the library holds.
# B1: TPR 5TU (parent)
# chain: GGAUCUUCUCGAUCUAACAAAAAAGACAAAUCUGCCACAAAGCUUGAGAGCAUCUUCGGAUGCAGAGGCGGCAGCCUUCGGUGGCGCGAUAGCGCCAACGUUCUCAACUAUGACACGCAAAACGCGUGCUCCGUUGAAUGGAGUUUAUCAUG
# Variants of: B1
# Experiment: polymerase ribozyme fitness, log enrichment relative to wild type (log ratio); higher = more active; in vitro selection for triplet polymerase activity
# How it was run: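 Both subunits of a heterodimeric triplet polymerase ribozyme were given their own mutant library, built by PCR and transcribed. Each library was annealed with a biotinylated primer, the partner subunit and triplets, incubated frozen at −7 °C, and its extended constructs gel-excised, captured on streptavidin beads and amplified by RT-PCR, all in one round done in triplicate. Fitness is the logarithm of genotype enrichment relative to wild-type enrichment, with replicates averaged by inverse-variance weighting. That logarithm is base 2, and Illumina-sequenced genotypes needed ≥10 input reads and ≥1 read per output.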
row,Variant,polymerase ribozyme fitness (log ratio)
1,GGAUCUUCUCGAUCUAACAAAAAAGACAAAUCUGCCACAAUGCUUGAGAGCAUCUUCGGAUGCAGAGGCGGCAGCCUUCGGUGGCGCGAUAGCGCCAACGUUCUCAACUAUGACACGCAAAACGCGUGCUCCGUUGAAUGAAGUUUAUCGUG [A41U G141A A150G],-4.16
2,GGAUCUUCUCGAUCUAACAAAAAAGACAAAUCUGCCACAAUCCUUGAGAGCAUCUUCGGAUGCAGAGGCGGCAGCGUUCGGUGGCGCGAUAGCGCCAACGUUCUCAACUAUGACACGCAAAACGCGUGCUCCGUUGAAUGGAGUUUAUCAUG [A41U G42C C76G],≤ -4.2
3,GGAUCUUCUCGAUCUAACAAAAAAGACAAAUCUGCCACAAUGCUUGAGAGCAUCUUCGGAUGCAGAGGCGGCAGCCUUCGGUGGCACGUUAGCGCCAACGUUCUCAACUAUGAUACGCAAAACGCGUGCUCCGUUGAAUGGAGUUUAUCAUG [A41U G86A A89U C114U],-4.16
4,GGAUCUUCUCGAUCUAACAAAAAAGACAAAUCUGCCACAAUGCUUGAGAGCAUCUUCAGUUGCAGAGGCGGCAGCCUUCGGUGGCGCGAUAGGGCCAACGUUCUCAACUAUGACACGCAAAACGCGUGCUCCGUUGAAUGGAGUUUAUCAUG [A41U G58A A60U C93G],≤ -4.2
5,GGAUCUUCUCGAUCUAACAAAAAAGACAAAUCUGCCACAAAACUUGAGAGCAUGUUCGGAUGCAGAGGCGGCAGCCUUCGGUGGCGCGAUUGCGCCAACGUUCUCAACUAUGACACGCAAAACGCGUGCUCCGUUGAAUGGAGUUUAUCAUG [G42A C54G A91U],≤ -4.2
6,GGAUCUUCUCGAUCUAACAAAAAAGACAAAUCUGCCACAAUGCUUGAGAGCAUCUUCGGAUGCAGAGGCGGCAGCCAUCGGUGGCGCGAUAGCGCCAACGUUCUCAACUAUGACACGCAAAACGCGUGCUCCGUUGAAUGGAGUUUAUCAUG [A41U U77A],≤ -4.2
7,GGAUCUUCUCGAUCUAACAAAAAAGACAAAUCUGCCACAAUGCUUGAGAGCAUCUUCGGAUGCAGAGGCGGCAGCCUUCGGUGGCUCGAUAGCGCCAACGUUCUCAACUAUGACACGCAAAACGCGUGCUCCGUUGAAUGGAGUUUAUCAUG [A41U G86U],-1.92
8,GGAUCUUCUCGAUCUAACAAAAAAGACAAAUCUGCCACAAUGCUUAAGAGCAUCUUCGGAAGCAGAGGCGGCAGCCUUCGGUGUCGCGAUAGCGCCAACGUUCUUAACUAUGACACGUAAAACGCGUGCUCCGUUGAAUGGAGUUUAUCAUG [A41U G46A U61A G84U C105U C118U],-3.26
9,GGAUCUUCUCGAUCUAACAAAAAAGACAAAUCUGCCACAAUACCUGAGAGCAUCUUCGGAUGCUGAGGCGGCAGCGUUCGGUGGCGCGAUAGCGCUAACGUUCUCAUCUAUGACACGCAAAACGCGUGCUCCGUUGAAUGGAGUUUAUCAUG [A41U G42A U44C A64U C76G C96U A107U],≤ -4.2
10,GGAUCUUCUCGAUCUAACAAAAAAGACAAAUCUGCCACAAUGCUUGAGAGCAUCUUCGGAUGCAGAGGCAGCAGCCUUCGGUGGCGCGAUAGCGCCAACGUUCUCAACUAUGACACGCAAAACGCGUGCUCCGUUGAAUGGAGUUUAUCAUG [A41U G70A],-3.15
11,GGAUCUUCUCGAUCUAACAAAAAAGACAAAUCUGCCACAAAACUUGAGAGCAUCUUCGAAUGCAGAGGCGGCAGCCUUCAGUGGCGCGAUAGCGCCAACGUUCUCAACUAUGACACGCAAAACGCGUGCUCCGUUGAAUGGAGUUUAUCAUG [G42A G59A G80A],≤ -4.2
12,GGAUCUUCUCGAUCUAACAAAAAAGACAAAUCUGCCACAAUGCUUGAUAGCAUCUUGGGAUGCAGAGGCGGCAGCCUUCGGUGGUGCGAUAGCGCCAACGUUCUCAACUAUGACACGCAUAACGCGUGCUCCGUUGAAUGGAGUUUAUCAUG [A41U G48U C57G C85U A120U],-3.4
13,GGAUCUUCUCGAUCUAACAAAAAAGACAAAUCUGCCACAAAACUUUAGAGCAUCGUCGGAUGCAGAGGCGGGAGCCUUCGGUGGCGCGAUAGCGCCAACGUUCUCAACUAUGACACGCAAAACGCGUGCUCCGUUGAAUGGAGUUUAUCAUG [G42A G46U U55G C72G],≤ -4.2
14,GGAUCUUCUCGAUCUAACAAAAAAGACAAAUCUGCCACAAUGCUUGAGAGCAGCUCCGGAUGCAGAGGCGGCAGCCUUCGGUGGCGCGAUAGCGCCAACGUUCUCAACUAUGACACGCAAAACGCGUGCUCCGUUGAAUGGAGUUCAUCAGG [A41U U53G U56C U146C U151G],≤ -4.2
15,GGAUCUUCUCGAUCUAACAAAAAAGACAAAUCUGCCACAAAACUUGAGAGCCUCUUCGGAUGCAGAGGCGGCAGCCUUCGGUGGCGCGAUAGCUCCGACGUUCUCAACUAUGACACGCAAAACGCGUGCUCCGUUGAAUGGAGAUUAUCAUG [G42A A52C G94U A97G U144A],≤ -4.2
16,GGAUCUUCUCGAUCUAACAAAAAAGACAAAUCUGCCACAAUGCUUGAGAGCAUCUUCGGAUGCAGAGGCGGCAGCCUUCGAUGGCGCGAUAGCGCCAACGUUCUCAACUAUGACACGCAAAACGCGUGCUCCGUUGAAUGGAGUUUAUCAUG [A41U G81A],-0.718
17,GGAUCUUCUCGAUCUAACAAAAAAGACAAAUCUGCCACAAAACUUUAGAGCAUCUUCGGAUGCAGAGGCGGCAGCCUUCGGAGGCGCGAUAGCGCCAACGUUCUCAACUAUGACACGCAAUACGCGUGCUCCGUUGAAUGGAGUUUAUCAUG [G42A G46U U82A A121U],-4.16
18,GGAUCUUCUCGAUCUAACAAAAAAGACAAAUCUGCCACAAUGCUUGAGAGCAUCUUCGGAUGCAGAGGCGGCAGCCUUCGGUGGCGCGAUAACGCCAACGUUCUCAACUAUGACACGCAAAACGCGUGCUCCGUUGAAUGGAGUUUAUCAUG [A41U G92A],-3.1
19,GGAUCUUCUCGAUCUAACAAAAAAGACAAAUCUGCCACAAUGCUUGAGAGCAUCUUCGGAUGCAGAGGCGGCAGCCUUCGGUGGCGCGAUAUCGCCAACGUUCUCAACUAUGACACGCAAAACGCGUGCUCCGUUGAAUGAAGUUUAUCAUG [A41U G92U G141A],-1.22

row,Variant,polymerase ribozyme fitness (log ratio)
1,GGAUCUUCUCGAUCUAACAAAAAAGACAAAUCUGCCACAAAACUUGAAAGCAACUUCGGAUGCAGAGGCGGCAGCAUUCGGUGGCGCGAUAGGGCCAACGUUCUCAACUAUGACACGCAAAACGCGUGCUCCGUUGAAUGGAGUUUAUCAUG [G42A G48A U53A C76A C93G],≤ -4.2
2,GGAUCUUCUCGAUCUAACAAAAAAGACAAAUCUGCCACAAUGCUUGAGAGCAUCAUCGGAUGCAGGGGCGGCAGCCUUCGGUGGCGCGAUAGUGCCAACGUUCUCAACUGUGACACGCAAAACGCGUGCUCCGUUGAAUAGAGUUUAUCAUG [A41U U55A A66G C93U A110G G140A],≤ -4.2
3,GGAUCUUCUCGAUCUAACAAAAAAGACAAAUCUGCCACAAAACUUGAGAGCAUCUUCGGAUGCAGUGGCGGCAGCCUUCGGUGGCGCGGUAGCGCCAACGUUCUCAACUAUGACACGCAAAACGCGUGCUCCGUUGAAUGGAGUAUAUCAUG [G42A A66U A89G U145A],≤ -4.2
4,GGAUCUUCUCGAUCUAACAAAAAAGACAAAUCUGCCACAAUGCUUGAGAGCAUCUACGGAUGCAGAGGCGGCAGCCUUCGGUGGCGCGAUAGCGCCAACGUUCUCAACUAUGACACGCAAAACGCGUGCUCCGUUGAAUGGAGUUUAUCAUG [A41U U56A],-0.813
5,GGAUCUUCUCGAUCUAACAAAAAAGACAAAUCUGCCACAAAACUUGAGAGCAUCUUCGGAUGCAGAGGGGGGAGCCUUCGGUGGCGCGAUAGCGCUAACGUUCUCAACUAUGACACGCAAAACGCGUGCUCCGUUGAAUGGAAUUUAUCAUG [G42A C69G C72G C96U G143A],≤ -4.2
6,GGAUCUUCUCGAUCUAACAAAAAAGACAAAUCUGCCACAAAACUUGAGCGCAUCUUCGGAUCCAGAGGCGGCAGCCCUCGGUGGCGCAAUAGCGCAAACGUUCUCAACUAUGACACGCAAAACGCGUGCUCGGUUGAAUGGAGUUUAUCAUG [G42A A49C G62C U77C G88A C96A C132G],≤ -4.2
7,GGAUCUUCUCGAUCUAACAAAAAAGACAAAUCUGCCACAAAACUUGAGACCAUCUUCGGAUGCAGAGGCGGCAGCCUUCGGUGGCGCGAUAGCGCCAACGUUCUCAACUAUGACACGCAAAACGCGUGCUCCGUUGAAUGGAGUUUAUCAUG [G42A G50C],≤ -4.2
8,GGAUCUUCUCGAUCUAACAAAAAAGACAAAUCUGCCACAAAACUUGAGAGCAUCUUCGGAUGCAGAGGCGGCAGCCUUCGGUGGCGCGAUAGCGCCAACGUUCUCAACUAUGACACGCAAAACGCGUGCUCCGUUGAAUGGAGUUUAUCAUG [G42A],-3.47
9,GGAUCUUCUCGAUCUAACAAAAAAGACAAAUCUGCCACAAAACUUGAGAGCAUCUUCGGAUGCAGAGGCGGCAGCCUUUGGUGGCGCGAUAGCGCCAACGUUCUCAACUAUGACACGCAAAACGCGUGCUCCGUUGAAAGGAGUAUAUGAUG [G42A C79U U139A U145A C149G],≤ -4.2
10,GGAUCUUCUCGAUCUAACAAAAAAGACAAAUCUGCCACAAAACUUGAGAGCAUCUUCGGAUGCAGAGGCGGCAGCUUUCGUUCGCGCGAUAGCGCCAACGUUCUCAACUUUGAGACGCAAAACGCGUGCUCCGUUGAAUGGAGUUUAUCAUG [G42A C76U G81U G83C A110U C114G],≤ -4.2
11,GGAUCUUCUCGAUCUAACAAAAAAGACAAAUCUGCCACAAUGCUUGAGAGCAUCUACGGAUGCAGAGGCGGCAGCCUUCGGUGUCGCGAUAGCGCCAACGUUCUCAACUAUGACACGAAAAACGGGUGCUCCGUUGAAUGGAGUUUAUCAUG [A41U U56A G84U C118A C125G],-4.09
12,GGAUCUUCUCGAUCUAACAAAAAAGACAAAUCUGCCACAAUGCUUGAGAGCAUCUUCGGAUGCAGAGGCGGCAUACUUCGGUGGCGCGAUGGCGCCAACGUUCUCAACUAUGACACGCAAAACGCGUGCUCCGUUGAAUGGAGUAUAUCAGG [A41U G74U C75A A91G U145A U151G],≤ -4.2
13,GGAUCUUCUCGAUCUAACAAAAAAGACAAAUCUGCCACAAAACUUGAGAGCAUCUUCGGAUGCAGAGGCGGUAGCCUUCGGUGGCGCGAUUGCGCCAACGUUCUCAACUAUGACACGCAAAACGCGUGCUCCGUUGAAUGGAGUUUAUCAUG [G42A C72U A91U],≤ -4.2
14,GGAUCUUCUCGAUCUAACAAAAAAGACAAAUCUGCCACAAAACUUGAGAGCAUGUUCGGAUGCAGAGGCGGCAGCCUUCGGUGGCGCGAUAGCGUCAACGUUCUCAUCUAUGACACGGAAAACGCGUGCUCCGUUGAAUGGAGUUUAUCAUG [G42A C54G C95U A107U C118G],≤ -4.2
15,GGAUCUUCUCGAUCUAACAAAAAAGACAAAUCUGCCACAAUGCUUGAGAGCAUCUUCAGAUGCAGAGGCGGCAGCCUUCGCUGGCGCGAUAGCGCCAACGUUCUCAACUAUGACACGCAAAACGCGUGCUCCGUUGAAUGGAGUUUAUCAUG [A41U G58A G81C],-0.606
16,GGAUCUUCUCGAUCUAACAAAAAAGACAAAUCUGCCACAAUGCUUGAGAGCAUCGUCGGAUGCAGAGGCGGCAGCCUUCGGUGGCGCGAUAGCGCCAACGUUCUCAACUAUGACACGCAAAACGCGUGCUCCGUUGAAUGGAGUUUAUCAUG [A41U U55G],-0.663
17,GGAUCUUCUCGAUCUAACAAAAAAGACAAAUCUGCCACAAUGCUUGAGAGCAUCUUCGGAUGCAGAGGCGGCAGCCUUCGGUGGCGCGAUAGCGCCAACGUCCUCAACUAUGACACGCAAAACGCGUGCUCCGUUGAAUGGAGUUGAUCAUG [A41U U102C U146G],-3.93
18,GGAUCUUCUCGAUCUAACAAAAAAGACAAAUCUGCCACAAUGCUUAAGAGCAUCUUCGAAUGCAGAGGCGGCAGCCUUCGGUGGCCCGAUAGCGCCAACGUUCUCAACUAUGACACGCAAAACGCGUGCUCCGUUGAAUGGAGUUUAUCAUG [A41U G46A G59A G86C],≤ -4.2
19,GGAUCUUCUCGAUCUAACAAAAAAGACAAAUCUGCCACAAUGCUUGAGAGCAUCUUCGGAUGCAGAGGCGGCAGCCUUCGGUGGCGCCAUAGCGCCAACGUUCUCAACUAUGACACGCAAAACGCGUGCUCCGUUGAAUGGAGUUUAUCAUG [A41U G88C],≤ -4.2

# From the RNAGym collection of RNA variant scans (doi:10.1073/pnas.2313332121)
